Measurements: the supplement of paper PMC11316812
± gives the standard deviation of the averaged measurements.

Columns and labels:
MCF7 = experiment: percentage of EdU-negative (G0-arrested) nuclei per well, 72 h; higher = more G0 arrest; settings: reference: sequence is the full UniProt precursor, the tested protein was the secreted form or ectodomain
hTERT-HMEC = experiment: as above; settings: reference: sequence is the full UniProt precursor, the tested protein was the secreted form or ectodomain
[1] = protein concentration 0.00771429 µM
[2] = protein concentration 0.0771429 µM
[3] = protein concentration 0.03125 µM
[4] = protein concentration 0.3125 µM
[5] = protein concentration 0.02225 µM
[6] = protein concentration 0.2225 µM
[7] = protein concentration 0.0225 µM
[8] = protein concentration 0.03123 µM
[9] = protein concentration 0.3123 µM
[10] = protein concentration 0.0257143 µM
[11] = protein concentration 0.257143 µM
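Further: secreted proteins added to cultured cells, EdU pulse at the end, nuclei found by Hoechst imaging, EdU status from nuclear versus surrounding ring intensity ratio, PBS as neutral control.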

Sequence | percentage of EdU-negative (MCF7; [7]) [%] | percentage of EdU-negative (MCF7; protein concentration 0.225 µM) [%] | percentage of EdU-negative (hTERT-HMEC; [7]) [%] | percentage of EdU-negative (hTERT-HMEC; protein concentration 0.225 µM) [%] | also measured
MWPLTVPPPLLLLLCSGLAGQTLFQNPEEGWQLYTSAQAPDGKCICTAVIPAQSTCSRDGRSRELRQLMEKVQNVSQSMEVLELRTYRDLQYVRGMETLMRSLDARLRAADGSLSAKSFQELKDRMTELLPLSSVLEQYKADTRTIVRLREEVRNLSGSLAAIQEEMGAYGYEDLQQRVMALEARLHACAQKLGCGKLTGVSNPITVRAMGSRFGSWMTDTMAPSADSRVWYMDGYYKGRRVLEFRTLGDFIKGQNFIQHLLPQPWAGTGHVVYNGSLFYNKYQSNVVVKYHFRSRSVLVQRSLPGAGYNNTFPYSWGGFSDMDFMVDESGLWAVYTTNQNAGNIVVSRLDPHTLEVMRSWDTGYPKRSAGEAFMICGVLYVTNSHLAGAKVYFAYFTNTSSYEYTDVPFHNQYSHISMLDYNPRERALYTWNNGHQVLYNVTLFHVISTSGDP |  |  |  |  | percentage of EdU-negative (MCF7; [1]): 24.6 ± 2.2%; percentage of EdU-negative (MCF7; [2]): 29 ± 4.7%; percentage of EdU-negative (hTERT-HMEC; [1]): 4.89 ± 0.63%; percentage of EdU-negative (hTERT-HMEC; [2]): 5.22 ± 0.46%
MWPLWRLVSLLALSQALPFEQRGFWDFTLDDGPFMMNDEEASGADTSGVLDPDSVTPTYSAMCPFGCHCHLRVVQCSDLGLKSVPKEISPDTTLLDLQNNDISELRKDDFKGLQHLYALVLVNNKISKIHEKAFSPLRKLQKLYISKNHLVEIPPNLPSSLVELRIHDNRIRKVPKGVFSGLRNMNCIEMGGNPLENSGFEPGAFDGLKLNYLRISEAKLTGIPKDLPETLNELHLDHNKIQAIELEDLLRYSKLYRLGLGHNQIRMIENGSLSFLPTLRELHLDNNKLARVPSGLPDLKLLQVVYLHSNNITKVGVNDFCPMGFGVKRAYYNGISLFNNPVPYWEVQPATFRCVTDRLAIQFGNYKK |  |  |  |  | percentage of EdU-negative (MCF7; [3]): 25.3 ± 1.7%; percentage of EdU-negative (MCF7; [4]): 25.1 ± 3.1%; percentage of EdU-negative (hTERT-HMEC; [3]): 4.62 ± 0.74%; percentage of EdU-negative (hTERT-HMEC; [4]): 7.32 ± 0.21%
MWQIVFFTLSCDLVLAAAYNNFRKSMDSIGKKQYQVQHGSCSYTFLLPEMDNCRSSSSPYVSNAVQRDAPLEYDDSVQRLQVLENIMENNTQWLMKLENYIQDNMKKEMVEIQQNAVQNQTAVMIEIGTNLLNQTAEQTRKLTDVEAQVLNQTTRLELQLLEHSLSTNKLEKQILDQTSEINKLQDKNSFLEKKVLAMEDKHIIQLQSIKEEKDQLQVLVSKQNSIIEELEKKIVTATVNNSVLQKQQHDLMETVNNLLTMMSTSNSAKDPTVAKEEQISFRDCAEVFKSGHTTNGIYTLTFPNSTEEIKAYCDMEAGGGGWTIIQRREDGSVDFQRTWKEYKVGFGNPSGEYWLGNEFVSQLTNQQRYVLKIHLKDWEGNEAYSLYEHFYLSSEELNYRIHLKGLTGTAGKISSISQPGNDFSTKDGDNDKCICKCSQMLTGGWWFDACGPSNLNGMYYPQRQNTNKFNGIKWYYWKGSGYSLKATTMMIRPADF |  |  |  |  | percentage of EdU-negative (MCF7; [5]): 27.2 ± 1.1%; percentage of EdU-negative (MCF7; [6]): 27.32 ± 0.1%; percentage of EdU-negative (hTERT-HMEC; [5]): 4.54 ± 0.087%; percentage of EdU-negative (hTERT-HMEC; [6]): 7.44 ± 0.6%
MWQLLLPTALLLLVSAGMRTEDLPKAVVFLEPQWYSVLEKDSVTLKCQGAYSPEDNSTQWFHNENLISSQASSYFIDAATVNDSGEYRCQTNLSTLSDPVQLEVHIGWLLLQAPRWVFKEEDPIHLRCHSWKNTALHKVTYLQNGKDRKYFHHNSDFHIPKATLKDSGSYFCRGLVGSKNVSSETVNITITQGLAVSTISSFSPPGYQVSFCLVMVLLFAVDTGLYFSVKTNI | 25.6 ± 2.5 | 25.5 ± 3.6 | 4.18 ± 0.071 | 4.98 ± 1.1 | 
MWSGWWLWPLVAVCTADFFRDEAERIMRDSPVIDGHNDLPWQLLDMFNNRLQDERANLTTLAGTHTNIPKLRAGFVGGQFWSVYTPCDTQNKDAVRRTLEQMDVVHRMCRMYPETFLYVTSSAGIRQAFREGKVASLIGVEGGHSIDSSLGVLRALYQLGMRYLTLTHSCNTPWADNWLVDTGDSEPQSQGLSPFGQRVVKELNRLGVLIDLAHVSVATMKATLQLSRAPVIFSHSSAYSVCASRRNVPDDVLRLVKQTDSLVMVNFYNNYISCTNKANLSQVADHLDHIKEVAGARAVGFGGDFDGVPRVPEGLEDVSKYPDLIAELLRRNWTEAEVKGALADNLLRVFEAVEQASNLTQAPEEEPIPLDQLGGSCRTHYGYSSGASSLHRHWGLLLASLAPLVLCLSLL | 25 ± 0.35 | 25.2 ± 0.86 | 5.01 ± 0.58 | 5.87 ± 0.22 | 
MWSLLLCGLSIALPLSVTADGCKDIFMKNEILSASQPFAFNCTFPPITSGEVSVTWYKNSSKIPVSKIIQSRIHQDETWILFLPMEWGDSGVYQCVIKGRDSCHRIHVNLTVFEKHWCDTSIGGLPNLSDEYKQILHLGKDDSLTCHLHFPKSCVLGPIKWYKDCNEIKGERFTVLETRLLVSNVSAEDRGNYACQAILTHSGKQYEVLNGITVSITERAGYGGSVPKIIYPKNHSIEVQLGTTLIVDCNVTDTKDNTNLRCWRVNNTLVDDYYDESKRIREGVETHVSFREHNLYTVNITFLEVKMEDYGLPFMCHAGVSTAYIILQLPAPDFRAYLIGGLIALVAVAVSVVYIYNIFKIDIVLWYRSAFHSTETIVDGKLYDAYVLYPKPHKESQRHAVDALVLNILPEVLERQCGYKLFIFGRDEFPGQAVANVIDENVKLCRRLIVIVVPESLGFGLLKNLSEEQIAVYSALIQDGMKVILIELEKIEDYTVMPESIQYIKQKHGAIRWHGDFTEQSQCMKTKFWKTVRYHMPPRRCRPFPPVQLLQHTPCYRTAGPELGSRRKKCTLTTG [Q9HB29] | 24.7 ± 2.6 | 24 ± 0.89 | 5.48 ± 0.32 | 6.16 ± 0.14 | 
MWTLGRRAVAGLLASPSPAQAQTLTRVPRPAELAPLCGRRGLRTDIDATCTPRRASSNQRGLNQIWNVKKQSVYLMNLRKSGTLGHPGSLDETTYERLAEETLDSLAEFFEDLADKPYTFEDYDVSFGSGVLTVKLGGDLGTYVINKQTPNKQIWLSSPSSGPKRYDWTGKNWVYSHDGVSLHELLAAELTKALKTKLDLSSLAYSGKDA | 25.6 ± 0.72 | 26.7 ± 4 | 4.76 ± 0.24 | 9.96 ± 1 | 
MWTSGRMSNAKNWLGLGMSLYFWGLMDLTTTVLSDTPTPQGELEALLSDKPQSHQRTKRSWVWNQFFVLEEYTGTDPLYVGKLHSDMDRGDGSIKYILSGEGAGIVFTIDDTTGDIHAIQRLDREERAQYTLRAQALDRRTGRPMEPESEFIIKIQDINDNEPKFLDGPYVATVPEMSPVGTSVIQVTATDADDPTYGNSARVVYSILQGQPYFSVDSKTGVIRTALMNMDREAKEYYEVIIQAKDMGGQLGGLAGTTTVNITLSDVNDNPPRFPQKHYQMSVLESAPISSTVGRVFAKDLDEGINAEMKYTIVDGDGADAFDISTDPNFQVGIITVKKPLSFESKKSYTLKVEGANPHLEMRFLNLGPFQDTTTVHISVEDVDEPPVFEPGFYFVEVPEDVAIGTTIQIISAKDPDVTNNSIRYSIDRSSDPGRFFYVDITTGALMTARPLDREEFSWHNITVLAMEMNNPSQVGSVPVTIKVLDVNDNAPEFPRFYEAFVCENAKAGQLIQTVSAVDQDDPRNGQHFYYSLAPEAANNPNFTIRDNQDNTARILTRRSGFRQQEQSVFHLPILIADSGQPVLSSTGTLTIQVCSCDDDGHVMSCSPEAYMLPVSLSRGALIAILACIFVLLVLVLLILSMRRHRKQPYIIDDEENIHENIVRYDDEGGGEEDTEAFDIAAMWNPREAQAGAAPKTRQDMLPEIESLSRYVPQTCAVNSTVHSYVLAKLYEADMDLWAPPFDSLQTYMFEGDGSVAGSLSSLQSATSDSEQSFDFLTDWGPRFRKLAELYGASEGPAPLW [Q9HBT6] | 28 ± 0.47 | 36 ± 0.13 | 3.9 ± 0.76 | 50.2 ± 7 | 
MWVLGIAATFCGLFLLPGFALQIQCYQCEEFQLNNDCSSPEFIVNCTVNVQDMCQKEVMEQSAGIMYRKSCASSAACLIASAGYQSFCSPGKLNSVCISCCNTPLCNGPRPKKRGSSASALRPGLRTTILFLKLALFSAHC [Q8N2G4] | 25.13 ± 0.22 | 25.1 ± 1.1 | 5.36 ± 1.2 | 4.964 ± 0.041 | 
MWVPVVFLTLSVTWIGAAPLILSRIVGGWECEKHSQPWQVLVASRGRAVCGGVLVHPQWVLTAAHCIRNKSVILLGRHSLFHPEDTGQVFQVSHSFPHPLYDMSLLKNRFLRPGDDSSHDLMLLRLSEPAELTDAVKVMDLPTQEPALGTTCYASGWGSIEPEEFLTPKKLQCVDLHVISNDVCAQVHPQKVTKFMLCAGRWTGGKSTCSGDSGGPLVCNGVLQGITSWGSEPCALPERPSLYTKVVHYRKWIKDTIVANP | 26.3 ± 1.2 | 25 ± 2 | 4.97 ± 0.14 | 5.29 ± 0.6 | percentage of EdU-negative (MCF7; [8]): 27.3 ± 0.96%; percentage of EdU-negative (MCF7; [9]): 26.3 ± 0.32%; percentage of EdU-negative (hTERT-HMEC; [8]): 4.99 ± 0.4%; percentage of EdU-negative (hTERT-HMEC; [9]): 6.47 ± 0.73%
MWWRVLSLLAWFPLQEASLTNHTETITVEEGQTLTLKCVTSLRKNSSLQWLTPSGFTIFLNEYPALKNSKYQLLHHSANQLSITVPNVTLQDEGVYKCLHYSDSVSTKEVKVIVLATPFKPILEASVIRKQNGEEHVVLMCSTMRSKPPPQITWLLGNSMEVSGGTLHEFETDGKKCNTTSTLIIHTYGKNSTVDCIIRHRGLQGRKLVAPFRFEDLVTDEETASDALERNSLSSQDPQQPTSTVSVTEDSSTSEIDKEEKEQTTQDPDLTTEANPQYLGLARKKSGILLLTLVSFLIFILFIIVQLFIMKLRKAHVIWKKENEVSEHTLESYRSRSNNEETSSEEKNGQSSHPMRCMNYITKLYSEAKTKRKENVQHSKLEEKHIQVPESIV | 25.3 ± 1.9 | 25.7 ± 2.4 | 4.57 ± 0.2 | 4.66 ± 0.87 | 
MYLSICCCFLLWAPALTLKNLNYSVPEEQGAGTVIGNIGRDARLQPGLPPAERGGGGRSKSGSYRVLENSAPHLLDVDADSGLLYTKQRIDRESLCRHNAKCQLSLEVFANDKEICMIKVEIQDINDNAPSFSSDQIEMDISENAAPGTRFPLTSAHDPDAGENGLRTYLLTRDDHGLFGLDVKSRGDGTKFPELVIQKALDREQQNHHTLVLTALDGGEPPRSATVQINVKVIDSNDNSPVFEAPSYLVELPENAPLGTVVIDLNATDADEGPNGEVLYSFSSYVPDRVRELFSIDPKTGLIRVKGNLDYEENGMLEIDVQARDLGPNPIPAHCKVTVKLIDRNDNAPSIGFVSVRQGALSEAAPPGTVIALVRVTDRDSGKNGQLQCRVLGGGGTGGGGGLGGPGGSVPFKLEENYDNFYTVVTDRPLDRETQDEYNVTIVARDGGSPPLNSTKSFAIKILDENDNPPRFTKGLYVLQVHENNIPGEYLGSVLAQDPDLGQNGTVSYSILPSHIGDVSIYTYVSVNPTNGAIYALRSFNFEQTKAFEFKVLAKDSGAPAHLESNATVRVTVLDVNDNAPVIVLPTLQNDTAELQVPRNAGLGYLVSTVRALDSDFGESGRLTYEIVDGNDDHLFEIDPSSGEIRTLHPFWEDVTPVVELVVKVTDHGKPTLSAVAKLIIRSVSGSLPEGVPRVNGEQHHWDMSLPLIVTLSTISIILLAAMITIAVKCKRENKEIRTYNCRIAEYSHPQLGGGKGKKKKINKNDIMLVQSEVEERNAMNVMNVVSSPSLATSPMYFDYQTRLPLSSPRSEVMYLKPASNNLTVPQGHAGCHTSFTGQGTNASETPATRMSIIQTDNFPAEPNYMGSRQQFVQSSSTFKDPERASLRDSGHGDSDQADSDQDTNKGSCCDMSVREALKMKTTSTKSQPLEQEPEECVNCTDECRVLGHSDRCWMPQFPAANQAENADYRTNLFVPTVEANVETETYETVNPTGKKTFCTFGKDKREHTILIANVKPYLKAKRALSPLLQEVPSASSSPTKACIEPCTSTKGSLDGCEAKPGALAEASSQYLPTDSQYLSPSKQPRDPPFMASDQMARVFADVHSRASRDSSEMGAVLEQLDHPNRDLGRESVDAEEVVREIDKLLQDCRGNDPVAVRK |  |  |  |  | percentage of EdU-negative (MCF7; [10]): 23.2 ± 3%; percentage of EdU-negative (MCF7; [11]): 26.6 ± 0.28%; percentage of EdU-negative (hTERT-HMEC; [10]): 4.62 ± 0.4%; percentage of EdU-negative (hTERT-HMEC; [11]): 7.27 ± 0.33%
